Results reported in patent US11707511B2, “Vaccine compositions and methods of using the same” (The Board of Supervisors of Louisiana State University and …, priority 2017, dated 2023).

Test system: C. auris
Test: Passive transfer of mAbs in cyclophosphamide-immunosuppressed B6.129X1Elane mice, disseminated infection by C. auris
Format: in vivo, Candida auris
Settings: 2×108 C. auris i.v.
Method: An immunocompromised murine model of disseminated infection by C. auris was developed. To induce immunosuppression, Jackson B6.129X1Elane mice received a 200 mg/kg dose of cyclophosphamide (CY) by i.p. on day −3. Prolonged immunosuppression was maintained for 30 days by giving each animal a 200 mg/kg dose of CY by i.p. every 10 days after infection. On day 0, mice of different experimental groups were intravenously infected with 2×10^8 viable C. auris yeast cells.
The preventive effect of peptide-specific mAbs, for example 7H6A2 and 1D4H5, and combinations thereof, for example 7H6A2+1D4H5, was examined by passive transfer experiments. Each mAb was appropriately diluted in DPBS to give a 40,000-100,000 ELISA titer against each corresponding specific peptide coated on the plate. For testing, mice received 0.5 ml of each mAb or 1 ml of two mAbs in combination (0.5 ml of each) intraperitoneally. Control mice received 0.5 ml of the DPBS diluents.
Protective mAbs protect immunocompromised mice against disseminated infection by Candida auris: The possibility of using passive mAb immunotherapy in immunocompromised mice against disseminated candidiasis by C. auris. The protective effect of mAb 7H6A2, 1D4H5 or these two mAbs in combination against the disease in immunocompromised mice was examined by passive transfer experiments (FIG. 14). Mice received either mAb 7H6A2 or 1D4H5 or the two mAbs in combination had reduced CFUs in kidneys (FIG. 14A) and in brains (FIG. 14B) as compared with control mice.

B1: 1D4H5: IgG1 mAb of hybridoma 1D4H5, specific for GPV-M1; VH SEQ ID NO: 64, VL SEQ ID NO: 66 (antibody, V domains shown)
VH: MYLGLNCVFIVFLLKGVQSEVKLEESGGGLVQPGGSMKLSCVASGFTFSNYWMNWVRQSPEKGLEWVAEIRLKSNNYATHYAESVKGRFTISSDDSKSSVYLQMNNLRAEDTGIYYCSTGNYWGQGTTLTVSS
VL: MDFQMQIISLLLISVTVIVSNGEIVLTQSPTTMAASPGEKITITCSASSTISSNYLHWYQQKPGFSPKLLIYRTSNLASGVPARFSGSGSGTSYSLTIGTMEAEDVATYYCQQGSTISRTFGSGTKLEIK
FIG. 14A
  CFUs in kidneys as compared with control mice: reduced CFUs
FIG. 14B
  CFUs in brains as compared with control mice: reduced CFUs
